# Reference: US20230406885A1, “CYCLIC PEPTIDES FOR TRAPPING INTERLEUKIN-1 BETA” (MERCK SHARP & DOHME LLC, priority 2022, published 2023)
# *1 amine or outer side, *2 acyl side, *3 side chain or, on linkers, in order; H or OH if unused. [ ]: non-standard residue; d: D form. TyrEtNAc = L-tyrosine O-ethyl acetamide, (S)-3-(4-(2-acetamidoethoxy)phenyl)-2-aminopropanoic acid, CC(=O)NCCOc1ccc(C[C@H](N[*:1])C(=O)[*:2])cc1; PyrimAla4AcPip = (S)-3-(2-(4-acetylpiperazin-1-yl)pyrimidin-5-yl)-2-aminopropanoic acid, CC(=O)N1CCN(c2ncc(C[C@H](N[*:1])C(=O)[*:2])cn2)CC1; 3AzaTyrEtNAc = (S)-3-(6-(2-acetamidoethoxy)pyridin-3-yl)-2-aminopropanoic acid, CC(=O)NCCOc1ccc(C[C@H](N[*:1])C(=O)[*:2])cn1; Phe(4-(4-Ac-piperazinyl)) = CC(=O)N1CCN(c2ccc(C[C@H](N)C(=O)O)cc2)CC1; Trp(4-Cl)(βS-Me) = C[C@@H](c1c[nH]c2cccc(Cl)c12)[C@H](N)C(=O)O; Pro(trans-4-NH2) = O=C([C@@H]1C[C@@H](N[*:3])CN1[*:1])[*:2]; Trp(βS-Me,4-F) = C[C@@H](c1c[nH]c2cccc(F)c12)[C@H](N)C(=O)O; Bip(4'-COOH) = N[C@@H](Cc1ccc(-c2ccc(C(=O)O)cc2)cc1)C(=O)O; 1Nal(3S-Me) = C[C@@H](c1cccc2ccccc12)[C@H](N)C(=O)O; Ala(indazol-1-yl) = N[C@@H](Cn1ncc2ccccc21)C(=O)O; Ala(indolin-1-yl) = N[C@@H](CN1CCc2ccccc21)C(=O)O; Phe(4-COOH) = N[C@@H](Cc1ccc(C(=O)O)cc1)C(=O)O; h3Pal(5-CN) = N#Cc1cncc(CC[C@H](N)C(=O)O)c1; 1Nal = N[C@@H](Cc1cccc2ccccc12)C(=O)O; hTyr = N[C@@H](CCc1ccc(O)cc1)C(=O)O; dDab = NCC[C@@H](N)C(=O)O; dNMeA = CN[C@H](C)C(=O)O; Dab = NCC[C@H](N)C(=O)O; Dap = NC[C@H](N)C(=O)O; Aib = CC(C)(N)C(=O)O
# B1: SEQ ID NO: 89 (peptide)
# peptide: cyclo([TyrEtNAc]W[Phe(4-COOH)]G[Pro(trans-4-NH2)][1Nal(3S-Me)]A[dNMeA]G[Bip(4'-COOH)]W[Dap][dA][hTyr])
# SMILES: CC(=O)NCCOc1ccc(C[C@@H]2NC(=O)[C@H](CCc3ccc(O)cc3)NC(=O)[C@@H](C)NC(=O)[C@H](CN)NC(=O)[C@H](Cc3c[nH]c4ccccc34)NC(=O)[C@H](Cc3ccc(-c4ccc(C(=O)O)cc4)cc3)NC(=O)CNC(=O)[C@@H](C)N(C)C(=O)[C@H](C)NC(=O)[C@H]([C@@H](C)c3cccc4ccccc34)NC(=O)[C@@H]3C[C@@H](N)CN3C(=O)CNC(=O)[C@H](Cc3ccc(C(=O)O)cc3)NC(=O)[C@H](Cc3c[nH]c4ccccc34)NC2=O)cc1
# B2: SEQ ID NO: 92 (peptide)
# peptide: cyclo([TyrEtNAc]W[Phe(4-COOH)]G[Pro(trans-4-NH2)][1Nal(3S-Me)]D[dNMeA]G[Bip(4'-COOH)][1Nal][Dab][Aib]G)
# SMILES: CC(=O)NCCOc1ccc(C[C@@H]2NC(=O)CNC(=O)C(C)(C)NC(=O)[C@H](CCN)NC(=O)[C@H](Cc3cccc4ccccc34)NC(=O)[C@H](Cc3ccc(-c4ccc(C(=O)O)cc4)cc3)NC(=O)CNC(=O)[C@@H](C)N(C)C(=O)[C@H](CC(=O)O)NC(=O)[C@H]([C@@H](C)c3cccc4ccccc34)NC(=O)[C@@H]3C[C@@H](N)CN3C(=O)CNC(=O)[C@H](Cc3ccc(C(=O)O)cc3)NC(=O)[C@H](Cc3c[nH]c4ccccc34)NC2=O)cc1
# B3: SEQ ID NO: 90 (peptide)
# peptide: cyclo([TyrEtNAc]W[Phe(4-COOH)]G[Pro(trans-4-NH2)][1Nal(3S-Me)]D[dNMeA]G[Bip(4'-COOH)][Ala(indazol-1-yl)]G[dDab][h3Pal(5-CN)])
# SMILES: CC(=O)NCCOc1ccc(C[C@@H]2NC(=O)[C@H](CCc3cncc(C#N)c3)NC(=O)[C@@H](CCN)NC(=O)CNC(=O)[C@H](Cn3ncc4ccccc43)NC(=O)[C@H](Cc3ccc(-c4ccc(C(=O)O)cc4)cc3)NC(=O)CNC(=O)[C@@H](C)N(C)C(=O)[C@H](CC(=O)O)NC(=O)[C@H]([C@@H](C)c3cccc4ccccc34)NC(=O)[C@@H]3C[C@@H](N)CN3C(=O)CNC(=O)[C@H](Cc3ccc(C(=O)O)cc3)NC(=O)[C@H](Cc3c[nH]c4ccccc34)NC2=O)cc1
# B4: SEQ ID NO: 9 (peptide)
# peptide: cyclo([3AzaTyrEtNAc]W[Phe(4-COOH)]G[Pro(trans-4-NH2)][Trp(βS-Me,4-F)]D[dNMeA]G[Bip(4'-COOH)]KL[dA][hTyr])
# SMILES: CC(=O)NCCOc1ccc(C[C@@H]2NC(=O)[C@H](CCc3ccc(O)cc3)NC(=O)[C@@H](C)NC(=O)[C@H](CC(C)C)NC(=O)[C@H](CCCCN)NC(=O)[C@H](Cc3ccc(-c4ccc(C(=O)O)cc4)cc3)NC(=O)CNC(=O)[C@@H](C)N(C)C(=O)[C@H](CC(=O)O)NC(=O)[C@H]([C@@H](C)c3c[nH]c4cccc(F)c34)NC(=O)[C@@H]3C[C@@H](N)CN3C(=O)CNC(=O)[C@H](Cc3ccc(C(=O)O)cc3)NC(=O)[C@H](Cc3c[nH]c4ccccc34)NC2=O)cn1
# B5: SEQ ID NO: 85 (peptide)
# peptide: cyclo([Phe(4-(4-Ac-piperazinyl))]W[Phe(4-COOH)]G[Pro(trans-4-NH2)][Trp(4-Cl)(βS-Me)]D[dNMeA]G[Bip(4'-COOH)]WG[dDab][hTyr])
# SMILES: CC(=O)N1CCN(c2ccc(C[C@@H]3NC(=O)[C@H](CCc4ccc(O)cc4)NC(=O)[C@@H](CCN)NC(=O)CNC(=O)[C@H](Cc4c[nH]c5ccccc45)NC(=O)[C@H](Cc4ccc(-c5ccc(C(=O)O)cc5)cc4)NC(=O)CNC(=O)[C@@H](C)N(C)C(=O)[C@H](CC(=O)O)NC(=O)[C@H]([C@@H](C)c4c[nH]c5cccc(Cl)c45)NC(=O)[C@@H]4C[C@@H](N)CN4C(=O)CNC(=O)[C@H](Cc4ccc(C(=O)O)cc4)NC(=O)[C@H](Cc4c[nH]c5ccccc45)NC3=O)cc2)CC1
# B6: SEQ ID NO: 91 (peptide)
# peptide: cyclo([TyrEtNAc]W[Phe(4-COOH)]G[Pro(trans-4-NH2)][1Nal(3S-Me)]D[dNMeA]G[Bip(4'-COOH)][Ala(indolin-1-yl)]G[dDab][h3Pal(5-CN)])
# SMILES: CC(=O)NCCOc1ccc(C[C@@H]2NC(=O)[C@H](CCc3cncc(C#N)c3)NC(=O)[C@@H](CCN)NC(=O)CNC(=O)[C@H](CN3CCc4ccccc43)NC(=O)[C@H](Cc3ccc(-c4ccc(C(=O)O)cc4)cc3)NC(=O)CNC(=O)[C@@H](C)N(C)C(=O)[C@H](CC(=O)O)NC(=O)[C@H]([C@@H](C)c3cccc4ccccc34)NC(=O)[C@@H]3C[C@@H](N)CN3C(=O)CNC(=O)[C@H](Cc3ccc(C(=O)O)cc3)NC(=O)[C@H](Cc3c[nH]c4ccccc34)NC2=O)cc1
# B7: SEQ ID NO: 93 (peptide)
# peptide: cyclo([TyrEtNAc]W[Phe(4-COOH)]G[Pro(trans-4-NH2)][1Nal(3S-Me)]D[dNMeA]G[Bip(4'-COOH)][1Nal][Dab][Aib][hTyr])
# SMILES: CC(=O)NCCOc1ccc(C[C@@H]2NC(=O)[C@H](CCc3ccc(O)cc3)NC(=O)C(C)(C)NC(=O)[C@H](CCN)NC(=O)[C@H](Cc3cccc4ccccc34)NC(=O)[C@H](Cc3ccc(-c4ccc(C(=O)O)cc4)cc3)NC(=O)CNC(=O)[C@@H](C)N(C)C(=O)[C@H](CC(=O)O)NC(=O)[C@H]([C@@H](C)c3cccc4ccccc34)NC(=O)[C@@H]3C[C@@H](N)CN3C(=O)CNC(=O)[C@H](Cc3ccc(C(=O)O)cc3)NC(=O)[C@H](Cc3c[nH]c4ccccc34)NC2=O)cc1
# B8: SEQ ID NO: 94 (peptide)
# peptide: cyclo([TyrEtNAc]W[Phe(4-COOH)]G[Pro(trans-4-NH2)][1Nal(3S-Me)]D[dNMeA]G[Bip(4'-COOH)][1Nal][Dap][Aib][h3Pal(5-CN)])
# SMILES: CC(=O)NCCOc1ccc(C[C@@H]2NC(=O)[C@H](CCc3cncc(C#N)c3)NC(=O)C(C)(C)NC(=O)[C@H](CN)NC(=O)[C@H](Cc3cccc4ccccc34)NC(=O)[C@H](Cc3ccc(-c4ccc(C(=O)O)cc4)cc3)NC(=O)CNC(=O)[C@@H](C)N(C)C(=O)[C@H](CC(=O)O)NC(=O)[C@H]([C@@H](C)c3cccc4ccccc34)NC(=O)[C@@H]3C[C@@H](N)CN3C(=O)CNC(=O)[C@H](Cc3ccc(C(=O)O)cc3)NC(=O)[C@H](Cc3c[nH]c4ccccc34)NC2=O)cc1
# B9: SEQ ID NO: 88 (peptide)
# peptide: cyclo([PyrimAla4AcPip]W[Phe(4-COOH)]G[Pro(trans-4-NH2)][1Nal(3S-Me)]D[dNMeA]G[Bip(4'-COOH)]W[Dap][dA][hTyr])
# SMILES: CC(=O)N1CCN(c2ncc(C[C@@H]3NC(=O)[C@H](CCc4ccc(O)cc4)NC(=O)[C@@H](C)NC(=O)[C@H](CN)NC(=O)[C@H](Cc4c[nH]c5ccccc45)NC(=O)[C@H](Cc4ccc(-c5ccc(C(=O)O)cc5)cc4)NC(=O)CNC(=O)[C@@H](C)N(C)C(=O)[C@H](CC(=O)O)NC(=O)[C@H]([C@@H](C)c4cccc5ccccc45)NC(=O)[C@@H]4C[C@@H](N)CN4C(=O)CNC(=O)[C@H](Cc4ccc(C(=O)O)cc4)NC(=O)[C@H](Cc4c[nH]c5ccccc45)NC3=O)cn2)CC1
# Target: Recombinant human IL-1β (BioLegend 579404) (human, UniProt P01584 117-269)
# Assay: cell-based or functional assay
row,MRC5 IC50 [nM],Binder
1,0.271,B1
2,0.457,B2
3,0.0507,B3
4,0.118,B4
5,0.0543,B5
6,0.0234,B6
7,0.12,B7
8,0.0639,B8
9,0.0945,B9
